From IntAct's records for PubMed 18067539 come the findings set out here.

B1: DNA-binding transcriptional repressor Mlc (Escherichia coli (strain K12)), P50456 (parent)
chain: MVAENQPGHIDQIKQTNAGAVYRLIDQLGPVSRIDLSRLAQLAPASITKIVREMLEAHLVQELEIKEAGNRGRPAVGLVVETEAWHYLSLRISRGEIFLALRDLSSKLVVEESQELALKDDLPLLDRIISHIDQFFIRHQKKLERLTSIAITLPGIIDTENGIVHRMPFYEDVKEMPLGEALEQHTGVPVYIQHDISAWTMAEALFGASRGARDVIQVVIDHNVGAGVITDGHLLHAGSSSLVEIGHTQVDPYGKRCYCGNHGCLETIASVDSILELAQLRLNQSMSSMLHGQPLTVDSLCQAALRGDLLAKDIITGVGAHVGRILAIMVNLFNPQKILIGSPLSKAADILFPVISDSIRQQALPAYSQHISVESTQFSNQGTMAGAALVKDAMYNGSLLIRLLQG
partner: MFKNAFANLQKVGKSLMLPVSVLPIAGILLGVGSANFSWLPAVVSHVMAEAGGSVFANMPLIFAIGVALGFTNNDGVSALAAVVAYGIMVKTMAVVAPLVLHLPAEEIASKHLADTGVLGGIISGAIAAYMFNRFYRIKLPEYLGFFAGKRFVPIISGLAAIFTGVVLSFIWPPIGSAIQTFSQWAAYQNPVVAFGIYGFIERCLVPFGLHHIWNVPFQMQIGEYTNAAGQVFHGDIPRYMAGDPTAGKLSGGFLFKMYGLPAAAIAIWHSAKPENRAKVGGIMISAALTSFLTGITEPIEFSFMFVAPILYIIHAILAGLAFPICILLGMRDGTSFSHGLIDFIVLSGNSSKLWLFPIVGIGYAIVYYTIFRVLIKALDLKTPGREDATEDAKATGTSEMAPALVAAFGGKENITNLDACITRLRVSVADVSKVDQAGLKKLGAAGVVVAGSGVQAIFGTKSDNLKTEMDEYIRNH

The variants in the assay derive from B1. Particulars: with ptgcb_ecoli ptsG.
As to MVAENQPGHIDQIKQTNAGAVYRLIDQLGPVSRIDLSRLAQLAPASITKIVREMLEAHLVQELEIKEAGNRGRPAVGLVVETEAWHYLSLRISRGEIFLALRDLSSKLVVEESQELALKDDLPLLDRIISHIDQFFIRHQKKLERLTSIAITLPGIIDTENGIVHRMPFYEDVKEMPLGEALEQHTGVPVYIQHDISAWTMAEALFGASRGARDVIQVVIDHNVGAGVITDGHLLHAGSSSLVEIGHTQVDPYGKRCYCGNHGCLETIASVDSILELAQLRLNQSMSSMLHGQPLTVDSLCQAALRGDLLAKDIITGVGAHVGRILAIMVNLFNPQKILIGSPLSKAADILFPVISDSIRQQALPAYSQHISVESTQFSNQGTMAGAALVKDAMYNGSLLIRLLQA [G406A], the “effect of a mutation on the interaction” value is reported as “decreasing interaction strength”.
